Test results as given in the supplement of paper PMC10065799, “High-throughput profiling of sequence recognition by tyrosine kinases and SH2 domains using bacterial peptide display” (eLife, 2023).

Assays:
Grb2 SH2 = Grb2 SH2 (UniProt P62993); experiment: SH2 binding enrichment of the phosphorylated peptide, bacterial display (enrichment ratio); higher = better substrate or ligand; peptides without Tyr show the background
c-Src SH2 = experiment: as above
SHP2-C SH2 = experiment: as above
FGFR1 = FGFR1 (UniProt P11362); experiment: phosphorylation enrichment, bacterial display (enrichment ratio); higher = better substrate or ligand; peptides without Tyr show the background
Fes = Fes (UniProt P07332); experiment: as above
Fes, sequence (P07332 whole entry, looked up): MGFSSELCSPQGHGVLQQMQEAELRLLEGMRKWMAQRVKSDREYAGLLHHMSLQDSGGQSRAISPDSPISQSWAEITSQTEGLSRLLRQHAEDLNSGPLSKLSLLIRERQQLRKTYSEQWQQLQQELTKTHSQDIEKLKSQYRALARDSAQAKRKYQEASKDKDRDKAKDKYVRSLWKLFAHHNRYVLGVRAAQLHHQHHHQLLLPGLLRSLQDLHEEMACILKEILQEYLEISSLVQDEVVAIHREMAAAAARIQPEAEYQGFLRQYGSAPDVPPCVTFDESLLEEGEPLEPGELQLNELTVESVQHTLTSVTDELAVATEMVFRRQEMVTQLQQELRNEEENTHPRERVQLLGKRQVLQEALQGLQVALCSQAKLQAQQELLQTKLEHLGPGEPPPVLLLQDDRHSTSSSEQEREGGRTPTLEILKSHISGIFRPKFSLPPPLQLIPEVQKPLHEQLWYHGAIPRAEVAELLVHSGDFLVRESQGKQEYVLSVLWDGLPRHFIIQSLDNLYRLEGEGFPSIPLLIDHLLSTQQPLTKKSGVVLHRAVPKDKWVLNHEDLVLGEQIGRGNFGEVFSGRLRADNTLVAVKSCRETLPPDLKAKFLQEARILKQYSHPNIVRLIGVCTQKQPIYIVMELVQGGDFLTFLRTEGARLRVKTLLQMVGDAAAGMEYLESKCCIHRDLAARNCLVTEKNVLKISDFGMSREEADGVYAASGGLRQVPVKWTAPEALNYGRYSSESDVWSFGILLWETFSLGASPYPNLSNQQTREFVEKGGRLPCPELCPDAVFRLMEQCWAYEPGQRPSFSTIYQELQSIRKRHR

MERTK = MERTK (UniProt Q12866); experiment: as above
MERTK, sequence (Q12866 whole entry, looked up): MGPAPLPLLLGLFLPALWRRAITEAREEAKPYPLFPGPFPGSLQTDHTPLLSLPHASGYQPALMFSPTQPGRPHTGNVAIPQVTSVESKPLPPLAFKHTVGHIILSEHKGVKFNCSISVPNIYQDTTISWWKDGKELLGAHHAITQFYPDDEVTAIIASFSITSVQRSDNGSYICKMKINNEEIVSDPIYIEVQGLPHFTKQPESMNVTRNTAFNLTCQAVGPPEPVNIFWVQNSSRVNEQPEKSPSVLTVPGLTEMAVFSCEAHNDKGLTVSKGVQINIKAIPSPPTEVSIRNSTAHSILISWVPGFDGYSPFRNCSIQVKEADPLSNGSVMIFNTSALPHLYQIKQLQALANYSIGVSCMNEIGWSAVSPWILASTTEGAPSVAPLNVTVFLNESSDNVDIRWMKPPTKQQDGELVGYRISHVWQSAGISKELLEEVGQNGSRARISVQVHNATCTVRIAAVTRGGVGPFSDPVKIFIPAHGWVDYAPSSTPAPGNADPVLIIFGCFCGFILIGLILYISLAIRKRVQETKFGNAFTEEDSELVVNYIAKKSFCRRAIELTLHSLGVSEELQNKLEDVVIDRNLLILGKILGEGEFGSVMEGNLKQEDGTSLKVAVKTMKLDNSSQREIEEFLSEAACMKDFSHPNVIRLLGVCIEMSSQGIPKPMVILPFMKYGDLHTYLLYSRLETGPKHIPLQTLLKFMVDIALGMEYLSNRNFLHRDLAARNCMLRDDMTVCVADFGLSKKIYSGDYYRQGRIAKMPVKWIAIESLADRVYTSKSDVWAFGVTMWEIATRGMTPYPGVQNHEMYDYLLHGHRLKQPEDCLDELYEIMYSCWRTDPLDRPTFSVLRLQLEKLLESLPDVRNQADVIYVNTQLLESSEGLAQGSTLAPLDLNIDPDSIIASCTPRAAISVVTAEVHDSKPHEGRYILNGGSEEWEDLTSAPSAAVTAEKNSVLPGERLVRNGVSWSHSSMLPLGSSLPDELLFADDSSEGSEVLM

EPHB2 = EPHB2 (UniProt P29323); experiment: as above
AncSZ = experiment: as above
Fyn = Fyn (UniProt P06241); experiment: as above
Fyn, sequence (P06241 whole entry, looked up): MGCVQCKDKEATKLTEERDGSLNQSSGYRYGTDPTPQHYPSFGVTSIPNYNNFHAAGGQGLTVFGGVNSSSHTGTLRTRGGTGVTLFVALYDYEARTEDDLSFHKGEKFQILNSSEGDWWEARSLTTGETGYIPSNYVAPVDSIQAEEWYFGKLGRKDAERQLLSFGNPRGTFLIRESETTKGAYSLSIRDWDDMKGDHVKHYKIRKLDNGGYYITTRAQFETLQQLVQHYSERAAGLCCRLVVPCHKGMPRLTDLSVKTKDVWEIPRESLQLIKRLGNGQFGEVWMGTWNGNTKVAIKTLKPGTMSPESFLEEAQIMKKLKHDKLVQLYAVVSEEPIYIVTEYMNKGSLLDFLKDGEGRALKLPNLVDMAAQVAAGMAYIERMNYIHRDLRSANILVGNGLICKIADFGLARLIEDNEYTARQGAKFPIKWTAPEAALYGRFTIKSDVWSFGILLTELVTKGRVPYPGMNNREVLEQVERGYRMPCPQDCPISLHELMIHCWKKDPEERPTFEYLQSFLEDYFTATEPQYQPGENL

FGFR3 = FGFR3 (UniProt P22607); experiment: as above
FGFR3, sequence (P22607 whole entry, looked up): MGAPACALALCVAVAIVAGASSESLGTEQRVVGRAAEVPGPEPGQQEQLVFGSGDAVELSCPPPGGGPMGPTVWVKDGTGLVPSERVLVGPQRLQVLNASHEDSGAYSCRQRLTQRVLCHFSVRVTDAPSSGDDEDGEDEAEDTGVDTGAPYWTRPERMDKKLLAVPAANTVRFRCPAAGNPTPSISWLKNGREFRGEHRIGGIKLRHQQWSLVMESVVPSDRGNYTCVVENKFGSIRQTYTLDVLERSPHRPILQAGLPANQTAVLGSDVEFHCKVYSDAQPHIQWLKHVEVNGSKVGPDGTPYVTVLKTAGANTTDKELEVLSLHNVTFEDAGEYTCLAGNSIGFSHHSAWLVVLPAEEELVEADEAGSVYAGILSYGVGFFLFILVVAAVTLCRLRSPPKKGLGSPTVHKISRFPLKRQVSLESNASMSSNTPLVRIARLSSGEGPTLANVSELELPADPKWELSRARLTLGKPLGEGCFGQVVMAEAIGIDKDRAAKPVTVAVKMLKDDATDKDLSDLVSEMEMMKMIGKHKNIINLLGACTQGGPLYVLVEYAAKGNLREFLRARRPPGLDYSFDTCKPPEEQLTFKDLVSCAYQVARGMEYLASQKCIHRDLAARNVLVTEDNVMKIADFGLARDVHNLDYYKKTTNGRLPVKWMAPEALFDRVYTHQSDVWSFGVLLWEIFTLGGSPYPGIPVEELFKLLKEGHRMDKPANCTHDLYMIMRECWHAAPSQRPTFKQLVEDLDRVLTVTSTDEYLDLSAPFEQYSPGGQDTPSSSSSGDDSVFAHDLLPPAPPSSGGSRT

EPHB1 = EPHB1 (UniProt P54762); experiment: as above
Fer (mouse) = experiment: as above
Hck = Hck (UniProt P08631); experiment: as above
Hck, sequence (P08631 whole entry, looked up): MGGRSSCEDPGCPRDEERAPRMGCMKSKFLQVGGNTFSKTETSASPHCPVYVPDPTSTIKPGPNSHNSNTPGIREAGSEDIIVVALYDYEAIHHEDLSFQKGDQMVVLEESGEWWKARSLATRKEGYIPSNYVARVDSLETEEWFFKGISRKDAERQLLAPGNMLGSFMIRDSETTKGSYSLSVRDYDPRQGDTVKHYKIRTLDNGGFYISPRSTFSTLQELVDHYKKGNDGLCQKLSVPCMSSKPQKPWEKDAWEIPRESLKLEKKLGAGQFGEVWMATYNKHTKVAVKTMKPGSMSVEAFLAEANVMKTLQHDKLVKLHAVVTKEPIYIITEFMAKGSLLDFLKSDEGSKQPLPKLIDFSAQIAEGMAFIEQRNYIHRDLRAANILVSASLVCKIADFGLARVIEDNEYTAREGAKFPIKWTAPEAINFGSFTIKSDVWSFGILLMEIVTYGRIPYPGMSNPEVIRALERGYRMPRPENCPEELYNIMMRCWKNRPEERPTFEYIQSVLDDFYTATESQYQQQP

Jak2 = Jak2 (UniProt O60674); experiment: as above
Jak2, sequence (O60674 whole entry, looked up): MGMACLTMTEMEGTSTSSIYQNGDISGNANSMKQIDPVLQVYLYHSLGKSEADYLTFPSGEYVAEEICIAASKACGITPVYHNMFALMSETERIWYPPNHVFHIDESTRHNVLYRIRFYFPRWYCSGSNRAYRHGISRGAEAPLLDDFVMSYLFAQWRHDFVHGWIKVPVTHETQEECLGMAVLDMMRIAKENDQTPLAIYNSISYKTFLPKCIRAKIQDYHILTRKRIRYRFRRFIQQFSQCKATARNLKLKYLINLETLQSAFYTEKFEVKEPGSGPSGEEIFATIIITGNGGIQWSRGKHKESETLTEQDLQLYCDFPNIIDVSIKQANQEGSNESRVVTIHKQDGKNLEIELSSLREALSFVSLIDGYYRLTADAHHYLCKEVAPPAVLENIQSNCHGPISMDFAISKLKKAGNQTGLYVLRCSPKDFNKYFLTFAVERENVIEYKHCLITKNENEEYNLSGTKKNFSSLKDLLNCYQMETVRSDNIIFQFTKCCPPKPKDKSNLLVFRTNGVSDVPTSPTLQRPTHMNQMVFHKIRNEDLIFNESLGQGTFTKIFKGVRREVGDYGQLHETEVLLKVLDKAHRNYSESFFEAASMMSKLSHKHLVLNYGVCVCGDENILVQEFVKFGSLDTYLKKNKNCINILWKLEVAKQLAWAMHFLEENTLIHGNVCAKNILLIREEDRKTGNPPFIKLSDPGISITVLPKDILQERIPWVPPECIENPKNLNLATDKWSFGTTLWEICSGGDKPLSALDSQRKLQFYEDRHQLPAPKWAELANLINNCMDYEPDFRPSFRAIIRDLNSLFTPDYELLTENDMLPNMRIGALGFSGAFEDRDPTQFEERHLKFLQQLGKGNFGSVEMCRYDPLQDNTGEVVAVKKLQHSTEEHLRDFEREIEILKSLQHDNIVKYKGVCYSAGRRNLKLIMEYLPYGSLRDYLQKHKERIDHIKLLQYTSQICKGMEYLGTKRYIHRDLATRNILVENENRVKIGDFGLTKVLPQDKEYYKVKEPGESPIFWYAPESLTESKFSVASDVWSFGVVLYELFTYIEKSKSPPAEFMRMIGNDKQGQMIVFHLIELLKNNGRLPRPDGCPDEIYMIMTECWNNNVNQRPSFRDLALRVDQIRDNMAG

c-Src = experiment: as above
c-Abl (mouse) = experiment: as above
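Wherever SH2 binding enrichment of the phosphorylated peptide, bacterial display is given: peptide library displayed on the E. coli surface as eCPX fusions, selected cells deep-sequenced, score is each peptide's frequency after selection divided by its frequency in the input.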
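Wherever phosphorylation enrichment, bacterial display is given: 11-residue human phosphosite peptides and single-mutation variants displayed on the E. coli surface, counted by deep sequencing, each peptide's frequency after selection divided by its frequency in the unselected input library; frequency after pTyr selection over input frequency; kinase dosed for 20-30% of maximal phosphorylation in three min.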

Grb2 SH2, sequence (P62993 whole entry, looked up): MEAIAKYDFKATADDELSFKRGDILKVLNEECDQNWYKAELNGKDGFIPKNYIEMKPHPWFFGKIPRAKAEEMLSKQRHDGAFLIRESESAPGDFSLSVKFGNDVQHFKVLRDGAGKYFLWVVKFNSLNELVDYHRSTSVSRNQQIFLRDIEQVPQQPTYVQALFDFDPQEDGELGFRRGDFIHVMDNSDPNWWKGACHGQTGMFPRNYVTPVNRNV

Sequence	SH2 binding enrichment (Grb2 SH2)	SH2 binding enrichment (c-Src SH2)	SH2 binding enrichment (SHP2-C SH2)	phosphorylation enrichment (FGFR1)	phosphorylation enrichment (Fes)	phosphorylation enrichment (MERTK)	phosphorylation enrichment (EPHB2)	phosphorylation enrichment (AncSZ)	phosphorylation enrichment (Fyn)	phosphorylation enrichment (FGFR3)	phosphorylation enrichment (EPHB1)	phosphorylation enrichment (Fer (mouse))	phosphorylation enrichment (Hck)	phosphorylation enrichment (Jak2)	phosphorylation enrichment (c-Src)	phosphorylation enrichment (c-Abl (mouse))
MCDKEYYSVHN [MET_Y1234_Y1230C]	1.13	1.16	0.908	5.1	0.862	0.478	0.865	1.79	0.684	3.33	0.625	0.594	0.734	1.31	1.02	0.566
CLNAIYQNNLT [GSR_Y158_R153C]	4.11	0.807	0.67	0.479	0.996	0.563	0.636	0.991	0.995	0.722	0.622	3.44	1.53	0.744	1.41	0.759
QLPRGYISIPV [BAG3_Y205]	0.736	0.887	0.993	0.482	0.974	0.612	0.722	0.789	0.839	0.744	0.698	0.642	0.718	0.881	0.592	0.867
RLLVVYSWTQR [HBB_Y36_P37S]	1.57	1.31	1.21	0.783	1.57	1.05	0.593	1.47	0.864	0.91	1.04	0.565	0.698	1.37	0.872	1
IGEVVYQRAAM [GRIN2A_Y502_V506A]	0.84	0.53	0.883	0.438	0.824	0.441	0.425	0.841	0.9	0.394	0.442	0.78	1.66	0.595	1.27	5.89
LTFDEYRNISQ [ANXA3_Y216]	2.68	0.49	0.585	1.23	1.93	0.498	0.782	1.82	0.854	1.49	1.01	1.08	1.08	1.58	0.643	1.13
RIFDYYSARKT [STOX1_Y858_A863T]	0.701	0.534	0.849	0.503	0.665	1.37	0.439	0.531	0.402	0.48	0.521	0.441	0.982	1.18	0.473	0.259
DLDPNYVVSSR [CKM_Y125_L127V]	0.8	0.488	0.787	0.539	0.943	0.453	0.546	1.17	0.45	0.69	0.561	0.494	0.573	0.843	0.46	0.713
LLILEYAKYGS [RET_Y806_V804L]	1.37	1.31	1.26	0.547	1.27	0.392	0.649	1.32	0.587	0.869	0.773	0.58	0.486	1.5	0.764	1.02
KGSEGYLAAIF [NF1_Y2503_T2507I_YF]	0.769	0.428	0.612	0.433	0.83	0.422	0.411	0.683	0.421	0.537	0.54	0.432	0.398	0.815	0.421	0.61
NPSFNYEIVNQ [DYNC1H1_Y3379_R3384Q_YF]	0.78	0.724	0.579	0.763	1.47	0.492	1.44	1.43	0.524	0.847	3.9	1.12	0.602	1.13	0.408	0.586
LKLKAYRFSIS [LCT_Y974_V971L]	0.673	0.502	0.763	0.845	1.96	1.15	0.948	1.76	0.746	1.21	0.883	1.26	0.882	2.76	1.55	2.51
RSGNCYLDIRP [FBN1_Y1535]	0.688	0.615	0.782	0.802	1.27	0.633	0.7	1.06	0.567	0.728	0.58	0.514	0.544	1.45	0.583	1.04
DDFDLYGGEKF [PTPN11_Y66_Y62D_YF]	0.569	0.426	0.545	0.585	1.38	0.475	0.659	1.28	2.27	0.727	0.639	1.72	3.11	1.2	2.14	0.731
ARGTRYRYVSQ [UCN3_Y95]	0.789	0.479	0.602	0.42	0.637	0.529	0.461	0.534	0.492	0.483	0.39	0.493	0.469	0.437	0.572	0.608
KEKLCYVALDF [ACTA1_Y220]	0.727	0.46	1.04	2.4	1.17	4.72	0.676	1.26	1.03	2.15	0.737	1.29	1.27	2.68	1.81	0.877
QQLQGYVPSNF [FRK_Y99_I100V_YF]	1.03	0.659	0.64	0.475	1.07	0.75	0.664	0.699	0.479	0.779	0.653	0.584	0.802	1.52	0.904	1.13

Sequence	SH2 binding enrichment (Grb2 SH2)	SH2 binding enrichment (c-Src SH2)	SH2 binding enrichment (SHP2-C SH2)	phosphorylation enrichment (FGFR1)	phosphorylation enrichment (Fes)	phosphorylation enrichment (MERTK)	phosphorylation enrichment (EPHB2)	phosphorylation enrichment (AncSZ)	phosphorylation enrichment (Fyn)	phosphorylation enrichment (FGFR3)	phosphorylation enrichment (EPHB1)	phosphorylation enrichment (Fer (mouse))	phosphorylation enrichment (Hck)	phosphorylation enrichment (Jak2)	phosphorylation enrichment (c-Src)	phosphorylation enrichment (c-Abl (mouse))
EQKKFYNAVKK [SCN5A_Y1495_M1498V_YF]	0.966	0.648	0.646	0.35	0.57	0.482	0.407	0.499	0.392	0.35	0.417	0.402	0.429	1.06	0.461	0.531
LREKVYVSLEA [RXRA_Y397_A398V]	0.774	1.06	0.94	0.837	0.794	0.568	0.501	0.64	1.36	0.737	0.456	0.44	0.61	0.723	1.36	0.542
GKSFTYAAFHA [KCNT1_Y563]	0.855	0.41	0.527	0.51	0.812	0.819	0.613	0.849	5.65	0.583	0.603	0.454	4.03	0.826	5.91	0.654
NFRRGYHLQVL [CD200R1L_Y138_H135R]	0.847	0.753	0.713	0.462	0.699	0.394	0.473	0.621	0.416	0.528	0.379	0.439	0.386	0.528	0.38	0.486
SSQAHYRLSAF [ADAMTS9_Y100]	0.816	0.43	0.721	0.399	0.584	0.368	0.426	0.65	0.449	0.584	0.452	0.347	0.434	0.482	0.41	0.481
DKTGEYPVPLI [ACADM_Y73]	0.666	0.399	0.697	0.468	0.957	0.392	0.575	0.809	0.407	0.687	0.528	0.442	0.49	0.856	0.436	0.55
MVTSGYKAKMI [EFR3A_Y447_T451M]	0.871	0.539	0.469	0.384	0.589	0.414	0.528	0.563	0.355	0.389	0.401	0.393	0.39	0.695	0.435	0.552
KGEDFYCVTFH [FHL1_Y149_C153Y_YF]	1.03	0.515	0.799	0.952	1.48	2.82	0.891	1.48	1.78	1.12	0.825	1.54	1.19	1.21	1.47	0.895
RGKDSYETSKL [SPP1_Y225_Q229K]	1.03	0.388	0.581	0.613	0.986	0.62	0.678	1.26	0.695	0.788	0.983	0.699	0.669	1.07	0.571	1.49
LLQEWYMIISR [HUWE1_Y4066_R4063Q]	1.08	0.623	1.09	1.04	2.39	1.1	0.921	2.05	0.766	2.45	2.11	0.821	1.1	3.08	1.25	1.81
KSSDVYVSFDF [SORL1_Y136_YF]	0.891	0.497	0.715	3.78	1.22	3.34	1.11	1.21	5.77	2.81	1.73	4.79	3.02	0.983	4.3	0.935
CSDPSYVKQME [CDC5L_Y464_Y459C]	0.882	0.515	0.666	0.488	1.38	0.493	0.626	1.22	0.467	0.931	0.703	0.661	0.492	1.13	0.488	0.849
GRPLFYWLTGC [LYZL6_Y140]	0.803	0.527	0.85	0.533	1.13	0.469	0.491	0.968	0.407	0.836	0.686	0.418	0.42	1.04	0.33	0.713
ACCLLYCGDVV [TUBA4A_Y319_R320C]	0.898	0.562	0.675	1.13	1.3	4.54	7.84	1.54	1.1	1.23	9.94	3.7	1.71	1.09	4.33	1.29
RGLQVYHRRNA [LRP2_Y2010]	0.674	0.486	0.604	1.1	1.05	1.2	0.86	1.41	0.964	0.889	0.755	0.803	0.783	1.2	1.49	0.957
CDDGKYVFVVT [RPS6KA3_Y488_Y483C_YF]	0.59	0.4	0.556	0.574	1.43	0.437	0.719	1.23	0.444	0.919	0.604	0.683	0.508	1.11	0.412	0.862
